{"source": "patent US10428140B2", "about": "“Anti-EphA4 antibody” (EISAI R&D MANAGEMENT CO., LTD., priority 2015, dated 2019)", "molecules": {"B1": {"name": "antibody A: mouse anti-EphA4 monoclonal antibody, IgG1/κ; heavy chain variable region SEQ ID NO: 11, light chain variable region SEQ ID NO: 13 (antibody, listed as Mus musculus, V domains shown)", "VH": "QIQLVQSGPELKKPGETVKISCKASGYTFTDYSMHWVKQAPGKGLKWMGWINTETGEPTYADDFKGRFAFSLETSASTAYLQINNLKNEDTATYFCARIPLYYYGSRYWYFDVWGAGTTVTVSS", "VL": "DIQMTQSPASLSVSVGETVTITCRASENIYRNLAWYQQKQGKSPQLLVYAATNLADGVPSRFSGSGSGTQYSLKINSLQSEDFGSYYCQHFWGTPWTFGGGTKLEIK"}}, "key": {"[1]": {"test_system": "EphA4 autophosphorylation induced by mouse Ephrin A1", "test": "In vivo competition assay using mouse newborns (EphA4 autophosphorylation in cerebral hemisphere)", "conditions": "8-day-old mouse, 300 mg/kg subcutaneous", "procedure": "The in vivo competition assay using mouse newborns was conducted according to the following steps. PBS (Wako Pure Chemical Industries), antibody A, or a control antibody (mouse anti-dinitrophenol antibody) produced with a conventional procedure by immunizing […] with dinitrophenol was subcutaneously administered at a dose of 300 mg/kg (30 mL/kg) to each 8-day-old mouse (Charles River Laboratories Japan). After 24 hours, the scalp was incised under 4% isoflurane (Intervet) anesthesia, and mouse Ephrin A1-Fc chimera (300 pmol/head, R&D Systems) or PBS (Wako Pure Chemical Industries) was administered into the lateral ventricle. 1 hour thereafter, the mouse was euthanized by decapitation, followed by the extirpation of the cerebral hemisphere. […] 3×SDS sample buffer was added to a portion of the homogenate, which was then boiled for 10 minutes, followed by protein quantification. […] The remaining homogenate was subjected to protein quantification and then dispensed in an amount corresponding to 3 mg of protein, and 1% Triton X-100 (Wako Pure Chemical Industries) and 0.1% SDS (Nacalai Tesque) were added thereto. […] Western blotting using an anti-EphA4 monoclonal antibody (Abnova) was further performed, and band intensity was quantified to calculate a value of phosphorylated EphA4/total EphA4. […]"}, "[2]": {"test_system": "mouse, rat, monkey, and human EphA4", "test": "Reactivity ELISA with mouse, rat, monkey, and human EphA4", "format": "binding", "conditions": "0.00128-20 μg/mL", "procedure": "Mouse, rat, monkey, and human EphA4 extracellular region-Fc-His proteins were prepared according to the following steps. First, according to the method described in Example 1, a monkey EphA4 extracellular region-Fc-His protein expression vector was constructed. The amino acid sequence of monkey EphA4 used in the vector construction is shown in SEQ ID NO: 44, and its extracellular region is shown in SEQ ID NO: 45. Next, HEK293EBNA cells (Life Technologies) were inoculated to a 10-cm dish (Falcon) and cultured at 37° C. for 1 day. The HEK293EBNA cells were transfected with the monkey EphA4 extracellular region-Fc-His protein expression vector or the mouse EphA4, rat EphA4, or human EphA4 extracellular region-Fc-His protein expression vector described in Example 1 using TransIT-LT1 (TAKARA). After incubation (5% CO2, 37° C.) for 4 days, the culture supernatant was recovered and centrifuged at 1500 rpm at room temperature for 5 minutes. […]\nAntibody A was evaluated for its binding activity against various Eph receptors according to the following steps.\nEach well of a 96-well plate (Nunc) was coated with a donkey anti-mouse IgG antibody (Jackson ImmunoResearch Laboratories). […] The absorbance at 450 nm was read using a microplate reader (PerkinElmer)."}}}
{"molecule": "B1", "values": [{"measurement": "suppression of mouse EphrinA1-induced EphA4 autophosphorylation", "setting": "[1]", "result": 66, "unit": "%"}, {"measurement": "reaction activity against mouse, rat, monkey, and human EphA4 (in words)", "setting": "[2]", "result": "equivalent reaction activity against all of mouse, rat, monkey, and human EphA4"}]}
